Target: truncated human FcRH5 (deletion of amino acids 1-744) with N-terminal gD tag (human) (UniProt Q96RD9)
Assay: cell-based or functional assay

Sequence of truncated human FcRH5 (deletion of amino acids 1-744) with N-terminal gD tag (human) (Q96RD9 745-977, stated change not applied): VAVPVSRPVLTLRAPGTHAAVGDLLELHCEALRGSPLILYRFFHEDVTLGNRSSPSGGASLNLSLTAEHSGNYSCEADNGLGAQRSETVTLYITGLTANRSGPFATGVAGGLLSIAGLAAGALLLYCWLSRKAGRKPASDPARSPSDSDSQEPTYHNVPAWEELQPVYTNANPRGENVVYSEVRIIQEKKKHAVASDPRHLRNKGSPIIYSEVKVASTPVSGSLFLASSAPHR

## anti-gD/UCHT1.v9 TDB (bispecific antibody)
  target cell killing, EC50: 0.19 nM
